Tests used:
[1] = Stability of IHOG in amination reaction solution with no microbial cell addition; type: physicochemical; settings: 300 mM 4R,S-IHOG, pH 8.3, 37° C., no cells
Method: Another reason therefor would be instability of IHOG, the material for producing monatin, in a certain pH. In order to test stability of IHOG in the amination reaction of IHOG, the present inventors measured a change of IHOG concentration with time in an amination reaction solution of IHOG with no microbial cell addition. The reaction was performed by shaking a test tube containing 1 ml of reaction solution composed of 100 mM potassium phosphate buffer (pH 8.3), 300 mM 4R,S-IHOG, 600 mM DL-Ala and 1 mM pyridoxal-5′-phosphate at 37° C. for 40 hours. As a result, a residual ratio of 4R,S-IHOG was decreased to 81% after 16 hours, 70% after 24 hours and 57% after 40 hours, respectively. […] It is presumed that this phenomenon is due to a decomposition reaction where IHOG is decomposed into 3-indole-pyruvic acid and pyruvic acid and a cyclization reaction of IHOG, to consume IHOG in the reaction solution before being converted to monatin. That is, the reaction catalyzed by the D-aminotransferase derived from the genus Bacillus or Paenibacillus is not sufficiently fast, and a part of IHOG becomes unavailable for the amination due to the decomposition and the cyclization before the amination. This is thought to be one reason why (2R,4R) monatin can not be efficiently produced.

[2] = IHOG amination with washed cells of BSDAT-expressing E. coli (Example 6); type: biochemical; settings: 50 mM IHOG, 200 mM D-alanine, pH 7.6, 30° C., 18 hours, cells 5% (w/v)
Method: E. coli transformants containing pUCBSDAT were cultivated in the LB medium (1 g/dL of bacto tryptone, 0.5 g/dL of yeast extract and 1 g/dL of NaCl) containing 0.1 mg/mL of ampicillin at 37° C. for 16 hours. Subsequently, 1 mL of thus obtained broth was added to a 500 mL Sakaguchi flask in which contains 50 mL of the LB medium, and main cultivation was performed at 37° C. After 2.5 hours of cultivation, isopropyl-1-thio-β-D-galactopyranoside (IPTG) was added thereto at a final concentration of 1 mM, and the cultivation was performed for additional 4 hours. Cells were harvested from the cultured medium and washed to prepare the cells of BSDAT-expressing E. coli.
The microbial cells prepared in the above (2) were suspended at 5% (w/v) in 1 mL of a reaction liquid composed of 100 mM Tris-HCl (pH 7.6), 50 mM IHOG, 200 mM D-alanine, 1 mM pyridoxal-5′-phosphate and 0.5% (v/v) toluene. One ml of the suspension was then transferred to a 10 mL test tube, and incubated with shaking at 30° C. for 18 hours. After the incubation, the amount of 2R-monatin thus produced was determined. As a result, 13.8 mM (2R,4R)-monatin and 12.7 mM (2R,4S)-monatin were produced from IHOG.

[3] = IHOG amination reaction with mutated BSDAT-expressing E. coli (Example 8); type: biochemical; settings: 50 mM 4R,S-IHOG, 16 hours
Method: E. coli transformants containing each plasmid with mutated BSDAT gene or pUCBSDAT were inoculated to 3 mL of LB medium (1 g/dL of bacto tryptone, 0.5 g/dL of yeast extract and 1 g/dL of NaCl) containing 0.1 mg/mL of ampicillin and 0.1 mM isopropyl-1-thio-β-D-galactopyranoside (IPTG). The medium was then cultured with shaking at 37° C. for 16 hours. Cells were collected from the cultured medium and washed to prepare the BSDAT-expressing E. coli. Expression of each mutated BSDAT was confirmed by SDS-PAGE. The cells harvested from 250 μL of the cultured medium were resuspended in 500 μL of an SDS-PAGE sample buffer and boiled for 10 minutes for cell lysis and denaturation, and 5 to 10 μL of the supernatant obtained by centrifugation (10,000×g, 10 min.) was subjected to SDS-PAGE.
Using a series of mutated BSDAT-expressing E. coli strains prepared in Example 7, 2R-monatin was produced from 4R,S-IHOG. The microbial cells prepared by centrifuging 400 μL of the cultured medium were suspended in the reaction solution having the following composition.
(§1) Reaction solution of IHOG: 100 mM Tris-HCl (pH 8.0), 50 mM 4R,S-IHOG, 200 mM D-alanine, 1 mM pyridoxal-5′-phosphate and 0.5% (v/v) toluene
The suspension was incubated at 30° C. for 16 hours, and then the amount of 2R-monatin thus produced was analyzed.

[4] = IHOG amination with washed cells of BMDAT-expressing E. coli (Example 3); type: biochemical; settings: 50 mM IHOG, 200 mM D-alanine, pH 8.0, 33° C., 16 hours, cells 2% (w/v)
Method: (§2) E. coli transformants with pUCBMDAT were inoculated to 3 mL of LB medium (1 g/dL of bacto tryptone, 0.5 g/dL of yeast extract and 1 g/dL of NaCl) containing 0.1 mg/mL of ampicillin and 0.1 mM isopropyl-1-thio-β-D-galactopyranoside (IPTG). The medium was then cultured with shaking at 37° C. for 16 hours. Cells were collected from the cultured medium and washed to prepare cells of the BMDAT-expressing E. coli.
The microbial cells prepared in (1) above were suspended at 2% (w/v) in 1 mL of a reaction liquid composed of 100 mM Tris-HCl (pH 8.0), 50 mM IHOG, 200 mM D-alanine, 1 mM pyridoxal-5′-phosphate and 0.5% (v/v) toluene. The suspension was then incubated with shaking at 33° C. for 16 hours, and the amount of 2R-monatin thus produced was determined. As a result, 16.4 mM of (2R,4S)-monatin and 17.0 mM of (2R,4R)-monatin were produced.

[5] = PHOG amination with washed cells of BMDAT-expressing E. coli (Example 3); type: biochemical; settings: 50 mM PHOG, 200 mM D-alanine, pH 8.0
Method: as §2
The reaction was also performed in a reaction liquid composed of 100 mM Tris-HCl (pH 8.0), 50 mM PHOG, 200 mM D-alanine, 1 mM pyridoxal-5′-phosphate and 0.5% (v/v) toluene. The amount of 2R-PHG thus produced after the incubation was determined. As a result, 17.1 mM of (2R,4S)-PHG and 19.2 mM of (2R,4R)-PHG were produced.

[6] = Amination reaction of PHOG with mutated BMDAT-expressing E. coli (Example 5); type: biochemical; settings: 50 mM 4R,S-PHOG, 16 hours
Method: (§3) E. coli transformants containing each plasmid with mutated BMDAT gene or pUCBMDAT were inoculated to 3 mL of LB medium (1 g/dL of bacto tryptone, 0.5 g/dL of yeast extract and 1 g/dL of NaCl) containing 0.1 mg/mL of ampicillin and 0.1 mM isopropyl-1-thio-β-D-galactopyranoside (IPTG). The medium was then cultured with shaking at 37° C. for 16 hours. Cells were harvested from the cultured medium and washed Expression of each mutated BMDAT was confirmed with SDS-PAGE. Cells harvested form 250 μL of the cultured broth were resuspended in 500 μL of an SDS-PAGE sample buffer and boiled for 10 minutes for cell lysis and denaturation. 5 to 10 μL of the supernatant obtained by centrifugation (10,000×g, 10 min.) was subjected to SDS-PAGE.
(§4) Using a series of mutated BMDAT-expressing E. coli strains prepared in Example 4 as a catalyst, 2R-monatin was produced from 4R,S-IHOG, and 2R-PHG was produced from 4R,S-PHOG. The microbial cells collected by centrifuging 400 μL of the cultured medium were suspended in a reaction solution having the following composition.
Reaction solution of PHOG: 100 mM Tris-HCl (pH 8.0), 50 mM 4R,S-PHOG, 200 mM D-alanine, 1 mM pyridoxal-5′-phosphate and 0.5% (v/v) toluene
(§5) The suspension was incubated at 30° C. for 16 hours, and then the amount of 2R-monatin and 2R-PHG thus produced were determined.

[7] = Amination reaction of IHOG with mutated BMDAT-expressing E. coli (Example 5); type: biochemical; settings: 50 mM 4R,S-IHOG, 16 hours
Method: as §3, §4, §1, §5

[8] = PHOG amination reaction with mutated BMDAT-expressing E. coli (Example 10); type: biochemical; settings: 100 mM 4R,S-PHOG, 16 hours
Method: (§6) Using a series of mutated BMDAT-expressing E. coli strains prepared in Example 9, 2R-monatin was produced from 4R,S-IHOG, and 2R-PHG was produced from 4R,S-PHOG. The microbial cells prepared by centrifuging 400 μL of the cultured medium were suspended in a reaction solution having the following composition.
Reaction solution of PHOG: 100 mM Tris-HCl (pH 8.0), 100 mM 4R,S-PHOG, 400 mM D-alanine, 1 mM pyridoxal-5′-phosphate and 0.5% (v/v) toluene
(§7) The suspension was incubated at 30° C. for 16 hours, and then the amount of 2R-monatin and 2R-PHG thus produced were analyzed.

[9] = IHOG amination reaction with mutated BMDAT-expressing E. coli (Example 10); type: biochemical; settings: 100 mM 4R,S-IHOG, 16 hours
Method: as §6
Reaction solution of IHOG: 100 mM Tris-HCl (pH 8.0), 100 mM 4R,S-IHOG, 400 mM D-alanine, 1 mM pyridoxal-5′-phosphate and 0.5% (v/v) toluene
as §7

[10] = DAT activity of mutated BMDAT: transamination from D-alanine to α-ketoglutaric acid, coupled lactate dehydrogenase assay; type: biochemical, E. coli; settings: 10 mM D-alanine, 10 mM α-ketoglutaric acid, pH 8.0, 30° C., cell sonicate supernatant
Method: E. coli transformants containing each plasmid with mutated BMDAT gene or pUCBMDAT were inoculated to 3 mL of casamino acid medium (0.5 g/dL of ammonium sulfate, 0.14 g/dL of KH2PO4, 0.23 g/dL of citrate 2Na.3H2O, 0.1 g/dL of MgSO4.7H2O, 2 mg/dl of FeSO4, 2 mg/dl of MnSO4, 2 mg/dL of pyridoxine hydrochloride, 0.1 mg/dL of thiamine, 1 g/dL of casamino acid, 0.3 g/dL of glycerol, pH 7.5) containing 0.1 mg/mL of ampicillin and 0.1 mM IPTG. The medium was then cultured with shaking at 37° C. for 16 hours. Cells were collected from 1 mL of the cultured medium, washed, suspended in 1 mL of 20 mM Tris-HCl (pH 7.6), and ultrasonically disrupted at 4° C. for 30 min. The sonicates were centrifuged at 15,000 rpm for 5 minutes, and the supernatant thereof was used as an enzyme catalyst. For the measurement of the D-aminotransferase activity (hereinbelow referred to as DAT activity), the transamination activity with D-alanine as the amino donor to α-ketoglutaric acid was enzymatically measured by analyzing pyruvic acid produced from D-alanine as the reaction proceeds.
Reaction conditions: 100 mM Tris-HCl (pH 8.0), 0.2 mM NADH, 0.1 mM pyridoxal-5′-phosphate, 5 U/mL lactate dehydrogenase, 10 mM D-alanine, 10 mM α-ketoglutaric acid, 30° C. A reduction of absorbance at 340 nm was measured.

[11] = 200 mM D-alanine, pH 8.0, 30° C.
[12] = 400 mM D-alanine, pH 8.0, 30° C.

## O=C(O)C(=O)CC(O)(Cc1c[nH]c2ccccc12)C(=O)O (racemic) [4R,S-IHOG, 4-(indol-3-ylmethyl)-4-hydroxy-2-oxoglutaric acid]
[1]; after 16 hours
  residual ratio of 4R,S-IHOG: 81%
[1]; after 24 hours
  residual ratio of 4R,S-IHOG: 70%

B1: PUCBSDAT: wild-type D-transaminase derived from Bacillus sphaericus ATCC 10208 (SEQ ID NO:4), expressed in E. coli (protein, listed as Bacillus sphaericus)
chain: MAYSLWNDQIVEEGSITISPEDRGYQFGDGIYEVIKVYNGHMFTAQEHIDRFYASAEKIRLVIPYTKDVLHKLLHDLIEKNNLNTGHVYFQITRGTTSRNHIFPDASVPAVLTGNVKTGERSIENFEKGVKATLVEDVRWLRCDIKSLNLLGAVLAKQEASEKGCYEAILHRGDIITECSSANVYGIKDGKLYTHPANNYILNGITRQVILKCAAEINLPVIEEPMTKGDLLTMDEIIVSSVSSEVTPVIDVDGQQIGAGVPGEWTRKLQKAFEAKLPISINA
[2]
  (2R,4R)-monatin produced: 13.8 mM
  (2R,4S)-monatin produced: 12.7 mM
[3]; [11]
  2R,4R-monatin: 13.8 mM
  2R,4S-monatin: 12.7 mM
[3]; 30° C.
  4R selectivity: 52%

B2: pUCBMDAT: wild-type D-aminotransferase derived from Bacillus macerans AJ1617 (SEQ ID NO:2), expressed in E. coli (protein)
chain: MAYSLWNDQIVEEGSIAISPEDRGYQFGDGIYEVIKVYNGNMFTAQEHIDRFYASAEKIRLVIPYTKDVLHKLLHELIEKNNLETGHVYFQITRGANSRNHVFPDASIPAVLTGNVKAGERAYENFEKGVKATFVEDIRWLRCDIKSLNLLGAVLAKQEAAEKGCYEAILHRGDIVTECSSANVYGIKDGKLYTHPANNFILNGITRQVILKCAEEINLPVIEEPMTKADLLTMDEIIVSSVSSEVTPVIDVDGNQIGAGVPGEWTRQLQQSFEAKLPLSMNTK
modifications: Bacillus macerans
[4]
  (2R,4R)-monatin produced: 17.0 mM
  (2R,4S)-monatin produced: 16.4 mM
[5]
  (2R,4R)-PHG produced: 19.2 mM
  (2R,4S)-PHG produced: 17.1 mM
[6]; [11]
  2R,4R-PHG: 19.2 mM
  2R,4S-PHG: 17.1 mM
[6]; 30° C.
  4R selectivity (ratio of (2R,4R) isomer out of total 2R-PHG): 53%
[7]; [11]
  2R,4R-monatin: 17.0 mM
  2R,4S-monatin: 16.4 mM
[7]; 30° C.
  4R selectivity (ratio of (2R,4R) isomer out of total 2R-monatin): 51%
[8]; [12]
  2R,4R-PHG: 34.2 mM
  2R,4S-PHG: 34.9 mM
[8]; 30° C.
  4R selectivity: 49%
[9]; [12]
  2R,4R-monatin: 19.1 mM
  2R,4S-monatin: 18.3 mM
[9]; 30° C.
  4R selectivity: 51%
[10]
  DAT activity: 6.3 U/mg
